The star is where a group is joined. Mu = morpholinocarbonyl cap, O=C(N1CCOCC1)*; Dox = doxorubicin
What was measured:
[1] = photophysical properties of pyropheophorbide acid (1O2 yield); assay type: physicochemical
PSA = PSA (Homo sapiens, UniProt P07288); conditions: incubation with enzymatically active PSA, HPLC detection; cited from earlier work
Sequence of PSA (P07288 25-261): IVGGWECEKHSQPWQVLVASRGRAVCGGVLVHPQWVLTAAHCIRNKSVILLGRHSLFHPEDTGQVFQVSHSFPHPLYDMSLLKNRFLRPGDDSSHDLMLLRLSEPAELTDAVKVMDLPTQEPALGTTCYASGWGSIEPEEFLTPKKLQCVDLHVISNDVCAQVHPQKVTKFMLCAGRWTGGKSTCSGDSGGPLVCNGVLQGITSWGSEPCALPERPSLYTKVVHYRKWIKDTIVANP

| Compound | 1O2 yield [1] [%] | hydrolysis by PSA (PSA) |
| --- | --- | --- |
| C=Cc1c(C)c2cc3nc(c4c5[nH]c(cc6nc(cc1[nH]2)C(C)=C6CC)c(C)c5C(=O)C4)[C@@H](CCC(=O)O)[C@@H]3C [Pyropheophorbide acid, pyropheophorbide acid] | 45 |  |
| Ac-HSSKLQ(SEQ ID NO:13)-Dox (Ac-HSSKLQ-Dox) |  | unable to hydrolyze |
| Mu-HS SKLQ(SEQ ID NO:13)-Leu-Dox (Mu-HSSKLQL-Dox) |  | resulted in production of Leu-Dox |

From patent US8133482B2, “Activatable photodynamic therapy agents” (The Trustees of the University of Pennsylvania, priority 2003, dated 2012)
